Patent publication US10012655B2, “Method for quantitating total HMGB1 protein in biological samples” (INSTITUT PASTEUR, priority 2008, dated 2018)

Columns and labels:
[1] = system: R5-HIV-1Ba-L; experiment: HIV-1 replication in infected iDCs, p24 ELISA in culture supernatant; type: cell-based; conditions: 1 μg/ml, 3 days
Experimental: FIGS. 6 (a), (b) and (c). Exogenous rh-HMGB1 triggers HIV-1 and HIV-2 replication in iDC. (a) HIV-1-infected iDC were cultured alone or in the presence of aNK cells for 3 days. Rh-HMGB1 (1 μg/ml) was added in some cultures. HIV replication was measured by p24 quantification in culture supernatant (b) HIV1-infected iDC were cultured alone or in the presence of aNK cells for 3 days. Blocking anti-HMGB1 antibodies (10 μg/ml) or glycyrrhizin (10 μg/ml) were added at culture initiation. HIV replication was measured by p24 quantification in culture supernatant. The mean±sd of three independent experiments is shown. Statistical comparisons were made with the non parametric Mann-Whitney test. * p<0.05; (c) HIV-2-infected iDC were cultured alone or in the presence of aNK cells for 3 days. Rh-HMGB1 (1 μg/ml) was added in some cultures. HIV replication was measured by p24 quantification in culture supernatant.
Virus stock preparation was prepared by amplification of R5-HIV-1Ba-L on MDM from healthy donors. Viral stock was then clarified by centrifugation prior to determination of HIV1 p24 concentration. iDCs were plated in 96-well culture plates at 200,000 cells/well and incubated for 3 hours at 37° C. in a 5% CO2 atmosphere with R5-HIV-1BAL at various concentrations (0.001 to 10 ng p24/ml). Cells were harvested, washed four times with media containing 10% FCS and, when indicated, rNK or aNK cells were added at a NK:DC ratio of 1:5, unless otherwise indicated. NK-DC cocultures lasted 24 h before analysis of the maturation stage of DCs and/or quantification of viral production. In some experiments (FIG. 6), HIV-1 infected iDCs were incubated alone or with aNK cells for 3 days, in the presence of rh-HMGB1 (1 μg/ml) (R&DSystems), and in some cultures in the presence of rabbit antiHMGB1 Abs (10 μg/ml) (Abcam, Cambridge, UK) or Glycyrrhizin (10 μg/ml).
The concentration of HIV-1 in the supernatant of infected cell cultures was determined by measuring the amount of p24 protein by ELISA (Ingen, Belgium). DNA from cells was extracted using the GIAamp DNA Blood Mini Kit (Qiagen, Basel, Switzerland) and quantified HIV-1 proviral load by RT-PCR as described previously54. The frequency of HIV-1-infected cells was determined by flow cytometry to detect intracellular p24 molecule. Cells were surface stained with antibodies specific for CD40 (BD Biosciences, San Jose, Calif.) to target DC and intracellular stained with p24-specific antibodies (Coulter). Stained cells were fixed in 1% PFA, immediately acquired on a FACScalibur (Becton Dickinson) and analyzed with FlowJo software. In some experiments infected DCs were imaged, after immunofluorescence, by laser scanning confocal microscopy.

[2] = system: HIV-2; experiment: HIV-2 replication in infected iDCs, p24 ELISA in culture supernatant; type: cell-based; conditions: HIV-2-infected iDC, day 3 of infection
Experimental: FIGS. 6 (a), (b) and (c). Exogenous rh-HMGB1 triggers HIV-1 and HIV-2 replication in iDC. (a) HIV-1-infected iDC were cultured alone or in the presence of aNK cells for 3 days. Rh-HMGB1 (1 μg/ml) was added in some cultures. HIV replication was measured by p24 quantification in culture supernatant (b) HIV1-infected iDC were cultured alone or in the presence of aNK cells for 3 days. Blocking anti-HMGB1 antibodies (10 μg/ml) or glycyrrhizin (10 μg/ml) were added at culture initiation. HIV replication was measured by p24 quantification in culture supernatant. The mean±sd of three independent experiments is shown. Statistical comparisons were made with the non parametric Mann-Whitney test. * p<0.05; (c) HIV-2-infected iDC were cultured alone or in the presence of aNK cells for 3 days. Rh-HMGB1 (1 μg/ml) was added in some cultures. HIV replication was measured by p24 quantification in culture supernatant. […]
2—NK-DC cocultures: cells were harvested, washed three times with RPMI containing 10% FCS and, when indicated, aNK cells were added at a NK:DC ratio of 1:5. […] NK-DC cocultures lasted 3 to 7 days before quantification of viral production in culture supernatants.
3—Quantification of HIV-2 viral production: the concentration of HIV-2 particles in the supernatants was determined with the p24 ELISA kit (Ingen, Belgium).

[3] = system: RAGE; experiment: Surface expression of RAGE on DCs (flow cytometry); type: cell-based, human; conditions: uninfected iDCs incubated with 1 μg/ml
Experimental: FIG. 3 (a)-(e). aNK-dependent maturation of HIV-1-infected iDCs is mediated by HMGB1 and involves RAGE. (a) Left panel: iDCs were cultured for 24 h either alone or with aNK cells, in the presence of blocking anti-HMGB1 antibodies (10 μg/ml) or glycyrrhizin (10 μg/ml). The maturation status of DCs was determined by flow cytometry with CD86 and HLA-DR—specific antibodies. Right panel: same experiment, but performed with HIV-1 infected iDCs. Data represent mean±sd of at least three independent experiments, and statistical comparisons were made with the non parametric Mann-Whitney test. * p<0.05. (b) iDC (10^6 cells/ml) were cultured for 48 h with increasing concentrations (1-10 μg/ml) of rh-HMGB1. Cells were then stained with anti-CD86, -HLA-DR, -CD80, -CD83, DC-LAMP and -CD40 antibodies and analyzed by flow cytometry. (c) Influence of rh-HMGB1 on cytokine and chemokine production (determined by MAP) by DCs. iDCs (10^6 cells/ml) were incubated for 48 h in medium or in presence of rh-HMGB1 (1 or 10 μg/ml). As a positive control, iDCs were stimulated with LPS (DC0). […] (e) iDC, DC0, uninfected or HIV-1-infected iDC cocultured for 24 h with aNK cells, were incubated with rh-HMGB1 (1 μg/ml) and subsequently stained with anti-RAGE antibodies and analyzed by flow cytometry. […]

B1: rh-HMGB1: recombinant human HMGB1 protein (R&D Systems) (protein, UniProt P09429 1-215, looked up)
High mobility group protein B1: MGKGDPKKPRGKMSSYAFFVQTCREEHKKKHPDASVNFSEFSKKCSERWKTMSAKEKGKFEDMAKADKARYEREMKTYIPPKGETKKKFKDPNAPKRPPSAFFLFCSEYRPKIKGEHPGLSIGDVAKKLGEMWNNTAADDKQPYEKKAAKLKEKYEKDIAAYRAKGKPDAAKKGVVKAEKSKKKKEEEEDEEDEEDEEEEEDEEDEDEEEDDDDE
- p24 production in culture supernatants ([1]; HIV-1-infected iDC cocultured with aNK cells): significant stimulatory effect on p24 production
- production of p24 in culture supernatants ([1]; HIV-1-infected iDC cultured alone): enhancing dramatically the production of p24
- HIV-2 viral replication (p24 in supernatant) [2]: slight increase in viral replication
- RAGE surface expression [3]: down-regulation of RAGE was observed
